Source: publication PMC9482650, “Quantitative fragmentomics allow affinity mapping of interactomes” (Nature Communications, 2022)

Columns and labels:
Assay in all cases: holdup assay
Set-up in all cases: key: below the threshold = too weak to quantify, mostly under pKd 3.1 to 4
TJP1_2, Q07157 = conditions: plain residues with an end cap or a label only (N-terminal biotin on a linker: ado-ado)
SNTG2, Q9NY99 = target: T1, SNTG2, Q9NY99; conditions: plain residues with an end cap or a label only (N-terminal biotin on a linker: ado-ado)
T1 sequence (Q9NY99 68-166, limits assumed, looked up): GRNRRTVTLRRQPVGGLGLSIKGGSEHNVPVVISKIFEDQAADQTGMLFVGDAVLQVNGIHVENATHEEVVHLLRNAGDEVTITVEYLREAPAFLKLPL

LNX1_2, Q8TBB1 = conditions: plain residues with an end cap or a label only (N-terminal biotin on a linker: ado-ado)
PARD3B_1, Q8TEW8 = target: T2, PARD3B_1, Q8TEW8; conditions: plain residues with an end cap or a label only (N-terminal biotin on a linker: ado-ado)
T2 sequence (Q8TEW8 196-299, limits assumed, looked up): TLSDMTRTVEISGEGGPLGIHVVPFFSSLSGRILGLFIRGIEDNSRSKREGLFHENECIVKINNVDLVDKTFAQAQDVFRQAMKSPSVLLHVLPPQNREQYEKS

PTPN3, P26045 = conditions: plain residues with an end cap or a label only (N-terminal biotin on a linker: ado-ado)
Inadl_3, Q8NI35 = conditions: plain residues with an end cap or a label only (N-terminal biotin on a linker: ado-ado)
ARHGAP21, Q5T5U3 = target: T3, ARHGAP21, Q5T5U3; conditions: plain residues with an end cap or a label only (N-terminal biotin on a linker: ado-ado)
T3 sequence (Q5T5U3 45-169, limits assumed, looked up): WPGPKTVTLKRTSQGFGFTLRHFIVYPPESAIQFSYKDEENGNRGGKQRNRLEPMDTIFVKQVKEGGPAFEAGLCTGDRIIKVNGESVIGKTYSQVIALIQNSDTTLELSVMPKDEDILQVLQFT

HTRA2, O43464 = conditions: plain residues with an end cap or a label only (N-terminal biotin on a linker: ado-ado)
MAGI2_4, Q86UL8 = target: MAGI2_4, Q86UL8
HTRA3, P83110 = target: T4, HTRA3, P83110; conditions: plain residues with an end cap or a label only (N-terminal biotin on a linker: ado-ado)
T4 sequence (P83110 354-453, limits assumed, looked up): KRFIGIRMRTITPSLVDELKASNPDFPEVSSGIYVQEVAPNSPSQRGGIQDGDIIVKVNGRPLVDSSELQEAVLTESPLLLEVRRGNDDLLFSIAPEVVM

Inadl_9, Q8NI35 = conditions: plain residues with an end cap or a label only (N-terminal biotin on a linker: ado-ado)
IL16_4, Q14005 = conditions: plain residues with an end cap or a label only (N-terminal biotin on a linker: ado-ado)
PDZRN3_1, Q9UPQ7 = target: T5, PDZRN3_1, Q9UPQ7; conditions: plain residues with an end cap or a label only (N-terminal biotin on a linker: ado-ado)
T5 sequence (Q9UPQ7 244-349, limits assumed, looked up): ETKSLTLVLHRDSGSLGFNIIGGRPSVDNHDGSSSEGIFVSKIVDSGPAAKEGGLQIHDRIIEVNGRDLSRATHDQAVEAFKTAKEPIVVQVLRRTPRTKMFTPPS

TJP2_1, Q9UDY2 = conditions: plain residues with an end cap or a label only (N-terminal biotin on a linker: ado-ado)
LNX1_1, Q8TBB1 = conditions: plain residues with an end cap or a label only (N-terminal biotin on a linker: ado-ado)
MAGI2_2, Q86UL8 = conditions: plain residues with an end cap or a label only (N-terminal biotin on a linker: ado-ado)
RHPN1, Q8TCX5 = target: T6, RHPN1, Q8TCX5; conditions: plain residues with an end cap or a label only (N-terminal biotin on a linker: ado-ado)
T6 sequence (Q8TCX5 508-602, limits assumed, looked up): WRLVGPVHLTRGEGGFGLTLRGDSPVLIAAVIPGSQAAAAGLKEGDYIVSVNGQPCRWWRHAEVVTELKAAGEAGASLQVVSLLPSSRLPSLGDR

DLG4_1, P78352 = conditions: plain residues with an end cap or a label only (N-terminal biotin on a linker: ado-ado)
MAGI3_2, Q5TCQ9 = conditions: plain residues with an end cap or a label only (N-terminal biotin on a linker: ado-ado)
Inadl_8, Q8NI35 = conditions: plain residues with an end cap or a label only (N-terminal biotin on a linker: ado-ado)
SNTA1, Q13424 = target: T7, SNTA1, Q13424
T7 sequence (Q13424 82-180, limits assumed, looked up): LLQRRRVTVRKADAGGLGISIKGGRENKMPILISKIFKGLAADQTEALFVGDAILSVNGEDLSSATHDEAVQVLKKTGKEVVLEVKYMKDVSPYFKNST

MAGI2_5, Q86UL8 = conditions: plain residues with an end cap or a label only (N-terminal biotin on a linker: ado-ado)
DFNB31_1, Q9P202 = target: T8, DFNB31_1, Q9P202; conditions: plain residues with an end cap or a label only (N-terminal biotin on a linker: ado-ado)
T8 sequence (Q9P202 135-233, limits assumed, looked up): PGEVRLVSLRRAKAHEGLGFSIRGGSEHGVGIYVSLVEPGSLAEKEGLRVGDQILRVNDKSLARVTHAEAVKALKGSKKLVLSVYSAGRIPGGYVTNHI

HTRA1, Q92743 = conditions: plain residues with an end cap or a label only (N-terminal biotin on a linker: ado-ado)
SCRIB_1, Q14160 = conditions: plain residues with an end cap or a label only (N-terminal biotin on a linker: ado-ado)
MAGI1_2, Q96QZ7 = conditions: plain residues with an end cap or a label only (N-terminal biotin on a linker: ado-ado)
PARD3_3, Q8TEW0 = conditions: plain residues with an end cap or a label only (N-terminal biotin on a linker: ahx)
SYNJ2BP, P57105 = target: T9, SYNJ2BP, P57105; conditions: plain residues with an end cap or a label only (N-terminal biotin on a linker: ahx)
T9 sequence (P57105 8-110, limits assumed, looked up): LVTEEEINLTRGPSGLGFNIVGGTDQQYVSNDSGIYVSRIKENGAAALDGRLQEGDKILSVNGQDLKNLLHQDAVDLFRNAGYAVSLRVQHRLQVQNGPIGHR

SHANK1, Q9Y566 = target: T10, SHANK1, Q9Y566; conditions: plain residues with an end cap or a label only (N-terminal biotin on a linker: ahx)
T10 sequence (Q9Y566 658-767, limits assumed, looked up): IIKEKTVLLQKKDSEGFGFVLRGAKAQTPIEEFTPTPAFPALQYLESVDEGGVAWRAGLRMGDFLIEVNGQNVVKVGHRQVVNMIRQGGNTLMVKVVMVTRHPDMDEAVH

SNTB1, Q13884 = target: T11, SNTB1, Q13884; conditions: plain residues with an end cap or a label only (N-terminal biotin on a linker: ahx)
T11 sequence (Q13884 107-205, limits assumed, looked up): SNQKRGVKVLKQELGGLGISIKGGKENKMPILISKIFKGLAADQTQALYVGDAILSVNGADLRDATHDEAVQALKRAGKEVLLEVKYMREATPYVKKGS

ARHGEF12, Q9NZN5-2 = conditions: plain residues with an end cap or a label only (N-terminal biotin on a linker: ahx)
DLG2_2, Q15700 = conditions: plain residues with an end cap or a label only (N-terminal biotin on a linker: ahx)
SNX27, Q96L92 = conditions: plain residues with an end cap or a label only (N-terminal biotin on a linker: ahx)
DLG3_3, Q92796 = target: T12, DLG3_3, Q92796; conditions: plain residues with an end cap or a label only (N-terminal biotin on a linker: ahx)
T12 sequence (Q92796 374-475, limits assumed, looked up): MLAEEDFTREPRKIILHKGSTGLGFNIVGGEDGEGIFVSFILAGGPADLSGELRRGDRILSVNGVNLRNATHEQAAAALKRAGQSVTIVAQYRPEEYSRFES

LIN7C, Q9NUP9 = target: T13, LIN7C, Q9NUP9; conditions: plain residues with an end cap or a label only (N-terminal biotin on a linker: ado-ado)
T13 sequence (Q9NUP9 88-185, limits assumed, looked up): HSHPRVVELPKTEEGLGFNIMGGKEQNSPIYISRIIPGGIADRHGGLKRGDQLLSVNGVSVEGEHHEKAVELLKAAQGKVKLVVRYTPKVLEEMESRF

LIN7B, Q9HAP6 = target: T14, LIN7B, Q9HAP6; conditions: plain residues with an end cap or a label only (N-terminal biotin on a linker: ado-ado)
T14 sequence (Q9HAP6 88-185, limits assumed, looked up): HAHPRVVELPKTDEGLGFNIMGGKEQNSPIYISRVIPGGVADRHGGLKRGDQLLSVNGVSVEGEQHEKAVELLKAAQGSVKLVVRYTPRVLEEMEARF

PDLIM1, O00151 = conditions: plain residues with an end cap or a label only (N-terminal biotin on a linker: ado-ado)
MPDZ_12, O75970 = target: T15, MPDZ_12, O75970; conditions: plain residues with an end cap or a label only (N-terminal biotin on a linker: ado-ado)
T15 sequence (O75970 1857-1958, limits assumed, looked up): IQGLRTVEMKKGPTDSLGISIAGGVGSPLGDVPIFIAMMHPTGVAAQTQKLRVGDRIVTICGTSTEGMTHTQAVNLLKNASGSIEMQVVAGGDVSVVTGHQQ

SCRIB_2, Q14160 = conditions: plain residues with an end cap or a label only (N-terminal biotin on a linker: ado-ado)
LAP2, Q96RT1 = conditions: plain residues with an end cap or a label only (N-terminal biotin on a linker: ado-ado)
DLG2_3, Q15700 = conditions: plain residues with an end cap or a label only (N-terminal biotin on a linker: ado-ado)
MPDZ_10, O75970 = target: T16, MPDZ_10, O75970; conditions: plain residues with an end cap or a label only (N-terminal biotin on a linker: ahx)
T16 sequence (O75970 1624-1722, limits assumed, looked up): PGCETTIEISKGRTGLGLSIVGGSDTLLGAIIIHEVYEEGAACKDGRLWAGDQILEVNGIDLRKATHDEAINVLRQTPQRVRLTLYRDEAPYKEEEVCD

PDZD7_3, Q9H5P4 = target: T17, PDZD7_3, Q9H5P4; conditions: plain residues with an end cap or a label only (N-terminal biotin on a linker: ahx)
T17 sequence (Q9H5P4 857-944, limits assumed, looked up): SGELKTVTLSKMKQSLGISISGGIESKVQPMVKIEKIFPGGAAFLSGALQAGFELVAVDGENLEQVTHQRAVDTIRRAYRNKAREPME

[1] = plain residues with an end cap or a label only (N-terminal biotin on a linker: ado-ado)
[2] = plain residues with an end cap or a label only (N-terminal biotin on a linker: ahx)

Chain of HTRA1, Q92743 (Q92743 360-477): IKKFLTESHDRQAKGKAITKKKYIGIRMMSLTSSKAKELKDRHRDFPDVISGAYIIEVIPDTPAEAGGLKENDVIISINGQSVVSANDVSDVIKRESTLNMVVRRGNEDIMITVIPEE
Chain of MAGI2_4, Q86UL8 (Q86UL8 772-865): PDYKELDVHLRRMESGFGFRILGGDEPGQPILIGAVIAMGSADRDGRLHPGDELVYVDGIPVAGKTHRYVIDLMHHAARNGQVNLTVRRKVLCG
Chain of LNX1_2, Q8TBB1 (Q8TBB1 371-470): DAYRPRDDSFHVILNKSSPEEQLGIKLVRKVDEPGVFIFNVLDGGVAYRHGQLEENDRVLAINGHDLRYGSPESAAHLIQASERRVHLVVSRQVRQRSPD
Chain of PARD3_3, Q8TEW0 (Q8TEW0 582-685): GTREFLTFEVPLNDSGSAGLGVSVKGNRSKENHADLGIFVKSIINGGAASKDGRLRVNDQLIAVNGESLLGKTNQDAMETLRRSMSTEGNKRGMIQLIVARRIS
Chain of DLG4_1, P78352 (P78352 62-152): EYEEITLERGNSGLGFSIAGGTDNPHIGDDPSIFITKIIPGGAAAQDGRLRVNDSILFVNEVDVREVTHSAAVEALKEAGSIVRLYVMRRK
Chain of LNX1_1, Q8TBB1 (Q8TBB1 261-371): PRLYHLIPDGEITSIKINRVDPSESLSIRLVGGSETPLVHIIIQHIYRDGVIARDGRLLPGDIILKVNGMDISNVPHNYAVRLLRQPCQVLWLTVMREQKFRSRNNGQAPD
Chain of MAGI2_5, Q86UL8 (Q86UL8 915-1017): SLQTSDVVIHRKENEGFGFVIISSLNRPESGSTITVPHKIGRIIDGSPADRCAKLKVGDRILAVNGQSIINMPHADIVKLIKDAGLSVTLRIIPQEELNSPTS
Chain of TJP1_2, Q07157 (Q07157 181-274): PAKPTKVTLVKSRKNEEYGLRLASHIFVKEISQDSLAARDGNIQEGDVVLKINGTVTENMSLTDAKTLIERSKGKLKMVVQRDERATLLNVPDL
Chain of TJP2_1, Q9UDY2 (Q9UDY2 24-128): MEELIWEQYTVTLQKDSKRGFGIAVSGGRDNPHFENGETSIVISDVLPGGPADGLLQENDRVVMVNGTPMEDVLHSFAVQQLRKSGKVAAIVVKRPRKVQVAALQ
Chain of MAGI3_2, Q5TCQ9 (Q5TCQ9 398-503): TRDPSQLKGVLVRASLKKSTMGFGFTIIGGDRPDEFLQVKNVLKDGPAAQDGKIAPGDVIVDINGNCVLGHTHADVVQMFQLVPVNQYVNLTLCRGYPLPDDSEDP
Chain of Inadl_8, Q8NI35 (Q8NI35 1425-1530): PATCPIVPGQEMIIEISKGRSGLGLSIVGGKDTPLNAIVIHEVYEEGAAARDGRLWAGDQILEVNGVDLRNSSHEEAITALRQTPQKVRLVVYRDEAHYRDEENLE
Chain of Inadl_3, Q8NI35 (Q8NI35 359-469): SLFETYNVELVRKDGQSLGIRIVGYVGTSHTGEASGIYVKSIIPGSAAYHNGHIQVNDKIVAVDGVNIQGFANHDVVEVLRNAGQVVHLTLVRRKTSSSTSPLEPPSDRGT
Chain of IL16_4, Q14005 (Q14005 1229-1329): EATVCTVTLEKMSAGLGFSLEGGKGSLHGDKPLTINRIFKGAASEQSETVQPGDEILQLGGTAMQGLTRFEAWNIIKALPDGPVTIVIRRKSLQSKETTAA
Chain of PDLIM1, O00151 (O00151 1-87): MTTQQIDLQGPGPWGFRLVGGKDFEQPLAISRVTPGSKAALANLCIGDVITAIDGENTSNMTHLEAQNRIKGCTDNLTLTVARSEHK
Chain of MAGI1_2, Q96QZ7 (Q96QZ7 456-580): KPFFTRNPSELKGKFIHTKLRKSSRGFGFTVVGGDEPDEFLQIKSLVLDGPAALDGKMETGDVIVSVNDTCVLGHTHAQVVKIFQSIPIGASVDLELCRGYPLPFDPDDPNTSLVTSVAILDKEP
Chain of PTPN3, P26045 (P26045 505-587): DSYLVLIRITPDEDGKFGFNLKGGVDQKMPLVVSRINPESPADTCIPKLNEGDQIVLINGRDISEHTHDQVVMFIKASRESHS
Chain of MAGI2_2, Q86UL8 (Q86UL8 410-522): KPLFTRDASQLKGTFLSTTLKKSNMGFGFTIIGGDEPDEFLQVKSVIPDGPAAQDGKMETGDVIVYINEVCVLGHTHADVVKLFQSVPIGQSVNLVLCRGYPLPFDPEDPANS
Chain of LAP2, Q96RT1 (Q96RT1 other isoform, or with tags, fused parts or gaps): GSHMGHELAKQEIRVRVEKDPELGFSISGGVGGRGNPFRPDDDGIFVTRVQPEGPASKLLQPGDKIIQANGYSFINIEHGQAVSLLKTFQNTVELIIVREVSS
Chain of SCRIB_2, Q14160 (Q14160 857-960): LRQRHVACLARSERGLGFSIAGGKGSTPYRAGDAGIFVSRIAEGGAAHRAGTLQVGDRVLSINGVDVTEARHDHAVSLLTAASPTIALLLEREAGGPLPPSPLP
Chain of SCRIB_1, Q14160 (Q14160 718-814): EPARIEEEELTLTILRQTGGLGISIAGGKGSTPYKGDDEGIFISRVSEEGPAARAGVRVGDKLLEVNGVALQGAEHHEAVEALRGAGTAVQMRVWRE
Chain of Inadl_9, Q8NI35 (Q8NI35 1530-1615): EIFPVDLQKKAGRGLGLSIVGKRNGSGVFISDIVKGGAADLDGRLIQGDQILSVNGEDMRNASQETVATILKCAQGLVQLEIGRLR
Chain of ARHGEF12, Q9NZN5-2 (Q9NZN5 other isoform, or with tags, fused parts or gaps): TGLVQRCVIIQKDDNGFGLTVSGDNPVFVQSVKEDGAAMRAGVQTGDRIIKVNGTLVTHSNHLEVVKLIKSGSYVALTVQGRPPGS
Chain of HTRA2, O43464 (O43464 355-458): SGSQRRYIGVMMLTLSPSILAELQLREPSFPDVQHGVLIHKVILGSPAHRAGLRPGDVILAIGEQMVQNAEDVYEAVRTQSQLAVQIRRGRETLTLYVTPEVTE

B1: PDLIM4_iso2, P50479 (peptide)
chain: VYPNAKVELV
pKd (TJP1_2, Q07157): 3.52 | pKd (SNTG2, Q9NY99): 3.48 | pKd (LNX1_2, Q8TBB1): 3.54 | pKd (PARD3B_1, Q8TEW8): 3.6 | pKd (PTPN3, P26045): 3.87 | pKd (Inadl_3, Q8NI35): 3.54 | pKd (ARHGAP21, Q5T5U3): 3.8 | pKd (HTRA2, O43464): 3.69 | pKd (MAGI2_4, Q86UL8; [1]): 3.56 | pKd (HTRA3, P83110): 3.62 | pKd (Inadl_9, Q8NI35): 3.57 | pKd (IL16_4, Q14005): 3.83

B2: SLC34A1, Q06495 (peptide)
chain: LPAHHNATRL
pKd (PDZRN3_1, Q9UPQ7): 3.77 | pKd (TJP2_1, Q9UDY2): 3.54 | pKd (LNX1_1, Q8TBB1): 3.72 | pKd (MAGI2_2, Q86UL8): 3.87 | pKd (RHPN1, Q8TCX5): 3.82 | pKd (DLG4_1, P78352): 3.51 | pKd (MAGI3_2, Q5TCQ9): 3.69 | pKd (Inadl_8, Q8NI35): 3.52 | pKd (SNTA1, Q13424; [1]): 3.71 | pKd (MAGI2_5, Q86UL8): 3.69 | pKd (DFNB31_1, Q9P202): 3.73 | pKd (HTRA1, Q92743): 3.73 | pKd (SCRIB_1, Q14160): 3.82 | pKd (MAGI1_2, Q96QZ7): 3.8

B3: GRIN1, Q05586 (peptide)
chain: LSDPSVSTVV
pKd (PARD3_3, Q8TEW0): 3.56 | pKd (SYNJ2BP, P57105): 3.72 | pKd (SHANK1, Q9Y566): 3.72 | pKd (SNTB1, Q13884): 3.55 | pKd (ARHGEF12, Q9NZN5-2): 3.71 | pKd (DLG2_2, Q15700): 3.71 | pKd (SNTA1, Q13424; [2]): 3.68 | pKd (SNX27, Q96L92): 3.61 | pKd (MAGI2_4, Q86UL8; [2]): 3.83 | pKd (DLG3_3, Q92796): 3.57

B4: ATP2A2, P16615 (peptide)
chain: YLEPVLSSEL
pKd (LIN7C, Q9NUP9): 3.8 | pKd (PDZRN3_1, Q9UPQ7): 3.7 | pKd (LIN7B, Q9HAP6): 3.83 | pKd (PDLIM1, O00151): 3.48 | pKd (MPDZ_12, O75970): 3.55 | pKd (SCRIB_2, Q14160): 3.56 | pKd (HTRA1, Q92743): 3.62 | pKd (LAP2, Q96RT1): 3.53 | pKd (DLG2_3, Q15700): 3.66

B5: PDLIM4, P50479 (peptide)
chain: PSASCAVTAA
pKd (MPDZ_10, O75970): 3.76 | pKd (PDZD7_3, Q9H5P4): 3.48
